From patent US5811298, “Rep-max protein having anti-oncogenic activity and uses thereof” (Albert Einstein College of Medicine of Yeshiva University, …, dated 1998)
Residue numbers refer to the chain shown, from its start.

B1: mouse Mxi-SR protein (other)
chain: MERVRMINVQRLLEAAEFLERRERECEHGYASSFPSMPSPRLQHSKPPRRLSRAQKHSSGSSNTSTANRSTHNELEKNRRAHLRLCLKRLKVLIPLGPDCTRHTTLGLLNKAKAHIKKLEEAERKSQHQLENLEREQRFLKRRLEQLQGPQEMERIRMDSIGSTISSDRSDSEREEIEVDVESTEFSHGKADSVSTTSISDLDDHSSLQSVGSDEGYSSASVKLSFAS
B2: human MXI protein (other)
chain: B1 chain with R5K, R142W, A191V, S193N, V194I, L202I, Q209P, V211I, A227T
B3: mouse Mxi-SR-pro (other)
chain: B1 chain with L19P
B4: mouse Mxi-Δrep (other)
chain: MERFPSMPSPRLQHSKPPRRLSRAQKHSSGSSNTSTANRSTHNELEKNRRAHLRLCLKRLKVLIPLGPDCTRHTTLGLLNKAKAHIKKLEEAERKSQHQLENLEREQRFLKRRLEQLQGPQEMERIRMDSIGSTISSDRSDSEREEIEVDVESTEFSHGKADSVSTTSISDLDDHSSLQSVGSDEGYSSASVKLSFAS
B5: mouse Mxi-WR protein (other)
chain: MPSPRLQHSKPPRRLSRAQKHSSGSSNTSTANRSTHNELEKNRRAHLRLCLKRLKVLIPLGPDCTRHTTLGLLNKAKAHIKKLEEAERKSQHQLENLEREQRFLKRRLEQLQGPQEMERIRMDSIGSTISSDRSDSEREEIEVDVESTEFSHGKADSVSTTSISDLDDHSSLQSVGSDEGYSSASVKLSFAS

Each binder was assayed against mouse c-Myc (mouse, UniProt P01108-2) (assay: cell-based or functional assay).

fold suppression of c-myc/RAS foci formation, REF cooperation assay [fold suppression]	Binder
8.1	B1
5.3	B2
1.78	B3
1.57	B4
1.74	B5
